The labels stand for the following.
B1: Autophagy-related protein 101 (Homo sapiens), Q9BSB4 (parent)
chain: MNCRSEVLEVSVEGRQVEEAMLAVLHTVLLHRSTGKFHYKKEGTYSIGTVGTQDVDCDFIDFTYVRVSSEELDRALRKVVGEFKDALRNSGGDGLGQMSLEFYQKKKSRWPFSDECIPWEVWTVKVHVVALATEQERQICREKVGEKLCEKIINIVEVMNRHEYLPKMPTQSEVDNVFDTGLRDVQPYLYKISFQITDALGTSVTTTMRRLIKDTLAL
partner: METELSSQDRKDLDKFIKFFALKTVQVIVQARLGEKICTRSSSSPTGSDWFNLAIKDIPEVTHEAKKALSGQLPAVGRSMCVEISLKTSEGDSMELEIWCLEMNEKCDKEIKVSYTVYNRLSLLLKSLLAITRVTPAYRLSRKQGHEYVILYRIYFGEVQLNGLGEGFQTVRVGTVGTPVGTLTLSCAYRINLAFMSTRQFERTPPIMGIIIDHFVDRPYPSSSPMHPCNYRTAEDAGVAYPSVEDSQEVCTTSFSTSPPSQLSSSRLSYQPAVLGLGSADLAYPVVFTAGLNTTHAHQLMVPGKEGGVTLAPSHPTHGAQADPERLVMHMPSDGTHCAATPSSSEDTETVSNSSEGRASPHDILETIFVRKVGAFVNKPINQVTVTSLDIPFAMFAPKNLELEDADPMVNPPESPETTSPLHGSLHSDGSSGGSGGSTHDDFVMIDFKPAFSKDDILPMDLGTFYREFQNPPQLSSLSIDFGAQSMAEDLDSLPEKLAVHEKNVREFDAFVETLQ

Variants of B1 are the subject of this test. The conditions noted are these: with atg13_mouse Atg13, Q91YI1.
Consider T63R, for which the “effect of a mutation on the interaction” value is on record as “decreasing interaction strength”. As to L30R;H31R, the “effect of a mutation on the interaction” value is “disrupting interaction strength”.
